Test results: the supplement of paper PMC7877785
± gives the uncertainty stated by the source.

Test: self-splicing fitness, log relative to wild type (ln ratio); higher = more splicing; Tetrahymena group I intron in knt gene, E. coli kanamycin selection, DiMSum; sequences stand for … in CUCUCU…GGAGGGAAAAGUUAUCAGGCAUGCACCUGGUAGCUAGUCUUUAAACCAAUAGAUUGCAUCGGUUUAAAAGGCAAGACCGUCAAAUUGCGGGAAAGGGGUCAACAGCCGUUCAGUACCAAGUCUCAGGGGAAACUUUGAGAUGGCCUUGCAAAGGGUAUGGUAAUAAGCUGACGGACAUGGUCCUAACCACGCAGCCAAGUCCUAAGUCAACAGAUCUUCUGUUGAUAUGGAUGCAGUUCACAGACUAAAUGUCGGUCGGGGAAGAUGUAUUCUUCUCAUAAGAUAUAGUCGGACCUCUCCUUAAUGGGAGCUAGCGGAUGAAGUGAUGCAACACUGGAGCCGCUGGGAACUAAUUUGUAUGCGAAAGUAUAUUGAUUAGUUUUGGAGUACUCGUGGUCG
How it was run: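 Colonies from six replicate transformations of E. coli BL21(DE3) were pooled and amplicon-sequenced on an Illumina HiSeq 2500. The library placed an intron with all eight P1ex-region nucleotides randomised inside the knt kanamycin-resistance gene on pET-22b(+), and cells grew overnight at 37°C or 30°C on LB agar with or without 25 μg/mL kanamycin (plus 100 μg/mL carbenicillin, 50 μM IPTG, 0.2% rhamnose). Fitness is the DiMSum error-weighted combination of wild-type-normalised replicate fold changes, kanamycin versus none.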

Row | Sequence | self-splicing fitness (ln) (30 °C) | self-splicing fitness (ln) (37 °C)
1 | UCGAAGCAAUAUUACGUACA | -0.691 ± 0.13 | 0.0696 ± 0.11
2 | UCGAAGCAAUAUUACGUAUG | -2.78 ± 0.16 | -1.33 ± 0.15
3 | UCGAAGCAAUAUUACGUCCU | -0.664 ± 0.12 | -0.253 ± 0.15
4 | UCGAAGCAAUAUUACGUGAC | -2.44 ± 0.19 | -2.88 ± 0.21
5 | UCGAAGCAAUAUUACGUUAA | -2.99 ± 0.19 | -0.482 ± 0.14
6 | UCGAAGCAAUAUUACGUUUA | -3.07 ± 0.45 | -0.87 ± 0.29
7 | UCGCAGCAAUAUUACGAACC | -3.4 ± 0.4 | -2.44 ± 0.41
8 | UCGCAGCAAUAUUACGACCG | -0.544 ± 0.11 | -0.235 ± 0.15
9 | UCGCAGCAAUAUUACGACUC | -3.5 ± 0.27 | -2.32 ± 0.27
10 | UCGCAGCAAUAUUACGAGAG | -4.55 ± 0.36 | -2.39 ± 0.18
11 | UCGCAGCAAUAUUACGCACG | -2.26 ± 0.16 | -0.255 ± 0.15
12 | UCGCAGCAAUAUUACGGAUG | -1.44 ± 0.13 | -2.55 ± 0.16
13 | UCGCAGCAAUAUUACGGAUU | -3.46 ± 0.17 | -2.51 ± 0.18
14 | UCGCAGCAAUAUUACGGCGA | -3.35 ± 0.13 | -3 ± 0.17
15 | UCGCAGCAAUAUUACGGCGU | -2.06 ± 0.16 | 0.251 ± 0.11
16 | UCGCAGCAAUAUUACGGUAC |  | -2.21 ± 0.31
17 | UCGCAGCAAUAUUACGUAUC | -3.82 ± 0.37 | -2.15 ± 0.27
18 | UCGCAGCAAUAUUACGUCAA | -2.69 ± 0.15 | -0.094 ± 0.11
19 | UCGCAGCAAUAUUACGUCGC | -3.2 ± 0.37 | 
20 | UCGCAGCAAUAUUACGUCGG | -2.74 ± 0.18 | -1.79 ± 0.19

Row | Sequence | self-splicing fitness (ln) (30 °C) | self-splicing fitness (ln) (37 °C)
21 | UCGCAGCAAUAUUACGUCUA | -0.18 ± 0.11 | 0.716 ± 0.12
22 | UCGCAGCAAUAUUACGUGGA | -1.93 ± 0.11 | -1.57 ± 0.084
23 | UCGCAGCAAUAUUACGUGUA | -1.19 ± 0.082 | -0.901 ± 0.083
24 | UCGCAGCAAUAUUACGUUUU | -4.52 ± 0.36 | -2.9 ± 0.23
25 | UCGGAGCAAUAUUACGAAGG | -2.58 ± 0.45 | 
26 | UCGGAGCAAUAUUACGACGA | -1.41 ± 0.14 | -1.32 ± 0.16
27 | UCGGAGCAAUAUUACGAGCA | -2.39 ± 0.23 | -1.51 ± 0.27
28 | UCGGAGCAAUAUUACGAUGG | -3.2 ± 0.22 | -2.1 ± 0.25
29 | UCGGAGCAAUAUUACGCGUG | 0.284 ± 0.17 | -0.281 ± 0.17
30 | UCGGAGCAAUAUUACGCUAG | -1.87 ± 0.21 | -2.38 ± 0.27
31 | UCGGAGCAAUAUUACGGCCA | -3.25 ± 0.44 | -1.63 ± 0.35
32 | UCGGAGCAAUAUUACGGCUC | -1.81 ± 0.29 | 
33 | UCGGAGCAAUAUUACGGUUG | -3.25 ± 0.24 | -2.48 ± 0.33
34 | UCGGAGCAAUAUUACGUACG | -1.21 ± 0.14 | -0.867 ± 0.18
35 | UCGGAGCAAUAUUACGUCUA | -2.52 ± 0.14 | -1.89 ± 0.14
36 | UCGGAGCAAUAUUACGUGUC |  | -2.26 ± 0.29
37 | UCGGAGCAAUAUUACGUGUG | -3.08 ± 0.18 | -1.63 ± 0.1
38 | UCGGAGCAAUAUUACGUUCU | -3.17 ± 0.2 | -1.41 ± 0.4
39 | UCGUAGCAAUAUUACGAAAC |  | -2.91 ± 0.38
